Reference: doi:10.1101/854158 (bioRxiv, 2019)

Experiments:
Experiment in all cases: cryo-EM structure
FANCE = target: T1, FANCE (human, UniProt Q9HB96 1-536)
T1 sequence: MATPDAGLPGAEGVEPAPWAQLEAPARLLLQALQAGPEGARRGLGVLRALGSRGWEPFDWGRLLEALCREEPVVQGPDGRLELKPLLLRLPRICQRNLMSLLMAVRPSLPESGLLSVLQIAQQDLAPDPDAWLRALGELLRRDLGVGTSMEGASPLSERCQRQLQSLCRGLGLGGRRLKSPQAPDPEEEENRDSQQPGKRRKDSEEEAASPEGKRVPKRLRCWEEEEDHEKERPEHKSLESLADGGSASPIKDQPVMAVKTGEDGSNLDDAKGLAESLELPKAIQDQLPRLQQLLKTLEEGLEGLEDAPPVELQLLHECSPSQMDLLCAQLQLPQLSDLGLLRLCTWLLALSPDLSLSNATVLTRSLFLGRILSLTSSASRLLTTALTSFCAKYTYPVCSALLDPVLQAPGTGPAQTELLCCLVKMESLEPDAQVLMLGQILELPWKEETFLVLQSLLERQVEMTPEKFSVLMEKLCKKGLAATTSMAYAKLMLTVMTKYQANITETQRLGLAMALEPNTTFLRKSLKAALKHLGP

FANCC = target: T2, FANCC (human, UniProt Q00597 1-558)
T2 sequence: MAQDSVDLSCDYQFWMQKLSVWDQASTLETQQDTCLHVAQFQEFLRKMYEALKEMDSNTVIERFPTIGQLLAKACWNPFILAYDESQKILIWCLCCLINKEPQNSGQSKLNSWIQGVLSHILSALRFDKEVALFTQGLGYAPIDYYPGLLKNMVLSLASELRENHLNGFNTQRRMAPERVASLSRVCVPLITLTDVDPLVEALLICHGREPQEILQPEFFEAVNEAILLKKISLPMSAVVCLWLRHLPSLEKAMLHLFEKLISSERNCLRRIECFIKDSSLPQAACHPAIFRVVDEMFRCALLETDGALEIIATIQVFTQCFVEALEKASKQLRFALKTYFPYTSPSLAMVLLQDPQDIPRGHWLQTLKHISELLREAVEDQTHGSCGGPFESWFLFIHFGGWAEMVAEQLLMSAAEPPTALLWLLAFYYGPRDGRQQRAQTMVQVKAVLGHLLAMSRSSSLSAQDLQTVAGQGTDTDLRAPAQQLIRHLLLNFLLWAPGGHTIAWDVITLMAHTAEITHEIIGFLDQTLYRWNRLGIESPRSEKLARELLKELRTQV

FANCI = target: T3, FANCI (human, UniProt Q9NVI1 1-1328)
T3 sequence: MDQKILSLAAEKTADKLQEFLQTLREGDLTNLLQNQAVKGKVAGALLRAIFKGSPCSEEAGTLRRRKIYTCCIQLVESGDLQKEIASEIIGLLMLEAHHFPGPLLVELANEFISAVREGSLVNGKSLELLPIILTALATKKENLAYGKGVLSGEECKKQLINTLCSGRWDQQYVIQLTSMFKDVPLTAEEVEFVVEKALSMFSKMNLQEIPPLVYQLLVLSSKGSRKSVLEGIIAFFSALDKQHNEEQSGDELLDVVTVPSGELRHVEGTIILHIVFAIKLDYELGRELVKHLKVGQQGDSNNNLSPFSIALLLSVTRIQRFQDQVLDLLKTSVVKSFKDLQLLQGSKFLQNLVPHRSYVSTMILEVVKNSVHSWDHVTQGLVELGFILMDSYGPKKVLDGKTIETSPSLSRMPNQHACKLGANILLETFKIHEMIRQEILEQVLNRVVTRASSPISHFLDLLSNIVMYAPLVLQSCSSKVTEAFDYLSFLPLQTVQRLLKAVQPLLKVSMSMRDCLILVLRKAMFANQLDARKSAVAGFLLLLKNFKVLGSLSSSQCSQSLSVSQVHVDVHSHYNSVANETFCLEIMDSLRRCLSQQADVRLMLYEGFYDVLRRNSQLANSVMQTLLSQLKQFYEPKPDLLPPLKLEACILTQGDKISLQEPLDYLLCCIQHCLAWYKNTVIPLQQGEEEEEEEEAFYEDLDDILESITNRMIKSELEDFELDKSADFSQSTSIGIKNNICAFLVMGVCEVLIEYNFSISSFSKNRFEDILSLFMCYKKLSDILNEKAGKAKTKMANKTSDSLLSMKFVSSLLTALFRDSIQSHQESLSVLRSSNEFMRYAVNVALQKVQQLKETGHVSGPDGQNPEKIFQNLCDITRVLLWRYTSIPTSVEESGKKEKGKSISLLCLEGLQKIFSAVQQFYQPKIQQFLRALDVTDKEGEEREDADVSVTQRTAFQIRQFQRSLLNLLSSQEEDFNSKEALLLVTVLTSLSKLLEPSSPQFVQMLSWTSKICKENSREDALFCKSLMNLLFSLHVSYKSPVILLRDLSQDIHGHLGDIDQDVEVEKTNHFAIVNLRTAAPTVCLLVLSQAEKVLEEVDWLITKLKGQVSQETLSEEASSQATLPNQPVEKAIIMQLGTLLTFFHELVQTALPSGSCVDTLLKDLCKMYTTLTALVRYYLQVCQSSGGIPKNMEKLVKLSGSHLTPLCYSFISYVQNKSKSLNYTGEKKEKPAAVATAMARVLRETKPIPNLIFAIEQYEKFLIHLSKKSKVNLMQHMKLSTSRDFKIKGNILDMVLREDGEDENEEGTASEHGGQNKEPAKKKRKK

Measured: binding result

B1: FANCL (enzyme)
chain: MAVTEASLLRQCPLLLPQNRSKTVYEGFISAQGRDFHLRIVLPEDLQLKNARLLCSWQLRTILSGYHRIVQQRMQHSPDLMSFMMELKMLLEVALKNRQELYALPPPPQFYSSLIEEIGTLGWDKLVYADTCFSTIKLKAEDASGREHLITLKLKAKYPAESPDYFVDFPVPFCASWTPQSSLISIYSQFLAAIESLKAFWDVMDEIDEKTWVLEPEKPPRSATARRIALGNNVSINIEVDPRHPTMLPECFFLGADHVVKPLGIKLSRNIHLWDPENSVLQNLKDVLEIDFPARAILEKSDFTMDCGICYAYQLDGTIPDQVCDNSQCGQPFHQICLYEWLRGLLTSRQSFNIIFGECPYCSKPITLKMSGRKH
binds: all assays above
